This is an account of results in US20210054076A1 (Chugai, published 2021).

Assay [1] has as its target T1, human CLDN6 (human, UniProt P56747 1-220).
T1 sequence: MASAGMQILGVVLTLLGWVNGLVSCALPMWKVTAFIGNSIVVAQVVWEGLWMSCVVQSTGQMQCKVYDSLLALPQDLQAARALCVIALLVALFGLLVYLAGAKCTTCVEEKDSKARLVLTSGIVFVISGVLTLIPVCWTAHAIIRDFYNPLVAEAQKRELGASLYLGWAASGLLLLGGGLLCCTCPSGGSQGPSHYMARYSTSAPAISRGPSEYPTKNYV
Kind of assay: cell-based or functional assay.

Assay [2] has as its target T2, mouse CLDN4 (mouse, UniProt O35054 1-210).
T2 construct: whole, on cells; also called mCLDN4; BaF3_mCLDN4
T2 sequence (looked up): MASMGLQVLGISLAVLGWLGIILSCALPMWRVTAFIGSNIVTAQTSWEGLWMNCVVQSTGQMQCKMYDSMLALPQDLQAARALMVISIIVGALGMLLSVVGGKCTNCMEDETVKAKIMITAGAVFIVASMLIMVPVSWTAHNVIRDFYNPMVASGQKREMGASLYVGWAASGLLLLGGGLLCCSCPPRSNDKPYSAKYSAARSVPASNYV
In words: FACS on Ba/F3 transfectant, antibody 20 micro g/ml, FITC anti-human IgG.

In assay [3] the target is T3, human CLDN9 (human, UniProt O95484 1-217).
T3 construct: whole, on cells; also called hCLDN9; BaF3_hCLDN9
T3 sequence (looked up): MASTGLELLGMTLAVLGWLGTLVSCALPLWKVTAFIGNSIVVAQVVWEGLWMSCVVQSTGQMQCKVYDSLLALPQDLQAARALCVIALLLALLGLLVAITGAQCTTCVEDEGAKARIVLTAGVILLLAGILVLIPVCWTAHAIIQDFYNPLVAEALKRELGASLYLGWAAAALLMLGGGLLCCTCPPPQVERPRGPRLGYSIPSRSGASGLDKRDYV
The assay is described as above.

Assay [4] addresses T4, mouse CLDN3 (mouse, UniProt Q9Z0G9 1-219).
T4 construct: whole, on cells; also called mCLDN3; BaF3_mCLDN3
T4 sequence (looked up): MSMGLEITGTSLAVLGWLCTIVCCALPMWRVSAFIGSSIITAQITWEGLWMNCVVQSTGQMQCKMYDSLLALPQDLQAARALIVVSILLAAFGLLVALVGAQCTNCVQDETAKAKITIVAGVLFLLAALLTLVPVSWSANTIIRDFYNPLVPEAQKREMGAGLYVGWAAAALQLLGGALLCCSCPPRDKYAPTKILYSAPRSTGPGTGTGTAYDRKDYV
The assay is described as above.

Assay [5] deals with T1, human CLDN6. The description is as above.
The target in assay [6] is T5, mouse CLDN6 (mouse, UniProt Q9Z262 1-219).
T5 construct: whole, on cells; also called mCLDN6; BaF3_mCLDN6
T5 sequence (looked up): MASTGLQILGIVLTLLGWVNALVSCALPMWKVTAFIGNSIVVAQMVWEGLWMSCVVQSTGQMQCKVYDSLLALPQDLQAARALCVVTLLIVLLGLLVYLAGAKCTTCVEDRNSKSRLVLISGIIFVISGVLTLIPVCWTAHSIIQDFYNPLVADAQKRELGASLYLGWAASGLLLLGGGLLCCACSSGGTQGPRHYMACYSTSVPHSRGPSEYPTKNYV
The assay is described as above.

For assay [7], the target named is T1, human CLDN6. In words: cell-based or functional assay. This is another data set of the same source.
The target of assay [8] is T1, human CLDN6. In words: cell-based or functional assay. This is another data set of the same source.

B1: CH04/CD3 (bispecific antibody, human IgG1, kappa, N297A)
heavy 1: EVQLQQSGPELVKPGASMKISCKASGYSFTGYTMNWVKQSHGKNLEWIGLINPYNGGTIYNQKFKGKATLTVDKSSSTAYMELLSLTSEDSAVYYCARDYGFVLDYWGQGTTLTVSSASTKGPSVFPLAPSSKSTSGGTAALGCLVKDYFPEPVTVSWNSGALTSGVHTFPAVLQSSGLYSLSSVVTVPSSSLGTQTYICNVNHKPSNTKVDKKVEPKSCDKTHTCPPCPAPELRGGPKVFLFPPKPKDTLMISRTPEVTCVVVDVSHEDPEVKFNWYVDGVEVHNAKTKPREEQYASTYRVVSVLTVLHQDWLNGKEYKCKVSNKALPAPIEKTISKAKGQPREPQVYTLPPSREEMTKNQVSLTCLVKGFYPSDIAVEWESNGQPENNYKTTPPYLDSDGSFFLYSKLTVDKSRWQQGNVFSCSVMHEALHNHYTQESLSLSP
light 1: DIVLTQSPSIMSVSPGEKVTITCSASSSVSYMHWFQQKPGTSPKLCIYSTSNLASGVPARFSGRGSGTSYSLTISRVAAEDAATYYCQQRSNYPPWTFGGGTKLEIKRTVAAPSVFIFPPSDEQLKSGTASVVCLLNNFYPREAKVQWKVDNALQSGNSQESVTEQDSKDSTYSLSSTLTLSKADYEKHKVYACEVTHQGLSSPVTKSFNRGEC
heavy 2: QVQLVESGGGVVQPGGSLRLSCAASGFTFSNAWMHWVRQAPGKGLEWVAQIKDKSQNYATYVAESVKGRFTISRADSKNSIYLQMNSLKTEDTAVYYCRYVHYAAGYGVDIWGQGTTVTVSSASTKGPSVFPLAPSSKSTSGGTAALGCLVKDYFPEPVTVSWNSGALTSGVHTFPAVLQSSGLYSLSSVVTVPSSSLGTQTYICNVNHKPSNTKVDKKVEPKSCDKTHTCPPCPAPELRGGPKVFLFPPKPKDTLMISRTPEVTCVVVDVSHEDPEVKFNWYVDGVEVHNAKTKPREEQYASTYRVVSVLTVLHQDWLNGKEYKCKVSNKALPAPIEKTISKAKGQPREPQVYTLPPSRKEMTKNQVSLTCLVKGFYPSDIAVEWESNGQPENNYKTTPPYLDSDGSFFLYSKLTVDKSRWQQGNVFSCSVMHEALHNHYTQKSLSLSP
light 2: DIVMTQSPLSLPVTPGEPASISCRSSQPLVHSNRNTYLHWYQQKPGQAPRLLIYKVSNRFSGVPDRFSGSGSGTDFTLKISRVEAEDVGVYYCGQGTQVPYTFGQGTKLEIKRTVAAPSVFIFPPSDEQLKSGTASVVCLLNNFYPREAKVQWKVDNALQSGNSQESVTEQDSKDSTYSLSSTLTLSKADYEKHKVYACEVTHQGLSSPVTKSFNRGEC
notes: Made by Fab arm exchange of the bivalent anti-CLDN6 antibody CH04 with the bivalent anti-CD3 antibody CD3-1; human IgG1 constant region; One anti-CLDN6 arm and one anti-CD3 arm; also called CLDN6-TRAB; CLDN6-targeted T-cell redirecting bispecific antibody
With B1, the “EC50 (read off the curve), Jurkat/NFAT-RE luciferase reporter, target cells PA-1” value in assay [1] is roughly 0.04 nM. The “Geo-mean value of FACS” value was 23 in assay [2]; 186 in assay [3]; 27 in assay [4]; 3480 in assay [5]; 1790 in assay [6]. Further, the “EC50 (read off the curve), Jurkat/NFAT-RE luciferase reporter, target cells ABC-1” value in assay [7] is roughly 0.06 nM. For the same molecule, the “EC50 (read off the curve), Jurkat/NFAT-RE luciferase reporter, target cells HuH-7” value in assay [8] is roughly 0.08 nM.
